For this assay, the target named is T1, human chemokine receptor CCR9 (human, UniProt P51686 1-369, N-glycosylated at Asn32 on cells (removed by PNGase F in some Western blots); the letters do not carry this).
T1 construct: On stably transfected HEK293 cells, endogenous on MOLT-4 cells, thymocytes and blood lymphocytes; also as membrane extracts in Western blots (with or without PNGase F); also called hCCR9; human CCR9
T1 sequence: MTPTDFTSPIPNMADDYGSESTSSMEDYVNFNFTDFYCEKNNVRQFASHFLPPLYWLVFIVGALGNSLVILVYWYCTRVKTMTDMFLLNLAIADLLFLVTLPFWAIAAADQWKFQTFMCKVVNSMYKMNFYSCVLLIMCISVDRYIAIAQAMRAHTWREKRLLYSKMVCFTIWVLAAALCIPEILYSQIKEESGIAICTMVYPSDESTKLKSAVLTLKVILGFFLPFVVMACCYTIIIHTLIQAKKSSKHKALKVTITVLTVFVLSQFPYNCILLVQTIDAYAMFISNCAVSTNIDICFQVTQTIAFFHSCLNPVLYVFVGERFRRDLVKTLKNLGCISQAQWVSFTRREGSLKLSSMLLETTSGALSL
The assay is described as follows: flow cytometry on MOLT-4 cells, hCCL25 10 µg/ml before 91R (0.5 µg/ml). As for the experimental part:
To study whether CCL25 affects CCR9 recognition by 91R, MOLT-4 cells were preincubated alone or with hCCL25, in the presence of sodium azide to inhibit receptor internalization (40 min, 4° C.), followed by incubation with 91R and flow cytometry analysis.

B1: recombinant human CCL25 (ligand, UniProt O15444 24-150, looked up)
chain: QGVFEDCCLAYHYPIGWAVLRRAWTYRIQEVSGSCNLPAAIFYLPKRHRKVCGNPKSREVQRAMKLLDARNKVFAKLHHNTQTFQAGPHAVKKLSSGNSKLSSSKFSNPISSSKRNVSLLISANSGL
notes: Bought (Peprotech); also called hCCL25; TECK
Regarding B1, the binding result is reported as “binds”.

(Values after patent US20160257756A1 (CONSEJO SUPERIOR DE INVESTIGACIONES CIENTIFICAS C S I C, published 2016).)
